Patent US20250296959A1, “B7-H3 TARGETING PEPTIDES AND CONSTRUCTS THEREOF” (Mariana Oncology Inc., priority 2024, published 2025)
Blank lines part the entries; values can stand above or below the binder they belong to. Starred links: 1 amine or outer side, 2 acyl side, 3 side chain; linkers in the order of their positions; H or OH if unused. Positions of bridges follow the written chain, without caps; N, C: chain ends. Non-standard residues stand in square brackets, D forms with d. *: point of attachment. Ala(piperidin-4-yl) = O=C([C@H](CC1CCN([*:3])CC1)N[*:1])[*:2]; DOTA = O=C(O)CN1CCN(CC(=O)O)CCN(CC(=O)*)CCN(CC(=O)O)CC1; Trp(5-F) = N[C@@H](Cc1c[nH]c2ccc(F)cc12)C(=O)O; Pro(cis-4-F) = O=C(O)[C@@H]1C[C@H](F)CN1; Ala(4-THP) = N[C@@H](CC1CCOCC1)C(=O)O; AEF = NCCOc1ccc(C[C@H](N)C(=O)O)cc1; Val(3-OH) = CC(C)(O)[C@H](N)C(=O)O; 4Pal = N[C@@H](Cc1ccncc1)C(=O)O; aThr = C[C@H](O)[C@H](N)C(=O)O; Tle = CC(C)(C)[C@H](N)C(=O)O; hLeu = CC(C)CC[C@H](N)C(=O)O; Nle = CCCC[C@H](N)C(=O)O; Sar = CNCC(=O)O

What was measured:
[1] = target: T1, Biotinylated human 4Ig B7-H3 (human, UniProt Q5ZPR3 29-461, limits assumed, biotinylated (site not stated)); assay: SPR 25C; C = 10<KD<=100 nM
T1 construct: Protein captured on the SA chip for SPR; also called 4lg-B7-H3; B7-H3 isoform 4Ig
T1 sequence: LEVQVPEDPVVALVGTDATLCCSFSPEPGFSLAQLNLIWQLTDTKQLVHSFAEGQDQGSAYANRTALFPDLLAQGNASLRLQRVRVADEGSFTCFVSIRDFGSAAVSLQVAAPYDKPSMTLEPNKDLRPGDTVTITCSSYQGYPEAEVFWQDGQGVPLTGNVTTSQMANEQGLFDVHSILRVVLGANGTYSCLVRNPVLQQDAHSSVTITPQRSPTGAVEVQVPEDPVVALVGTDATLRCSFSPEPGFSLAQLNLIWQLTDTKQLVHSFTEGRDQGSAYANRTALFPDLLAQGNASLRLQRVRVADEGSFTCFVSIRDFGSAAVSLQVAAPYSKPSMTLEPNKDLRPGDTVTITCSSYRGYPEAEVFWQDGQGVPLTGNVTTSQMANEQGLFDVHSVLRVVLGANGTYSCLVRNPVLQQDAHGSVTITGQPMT

[2] = target: Biotinylated human 4Ig B7-H3 (human) (UniProt Q5ZPR3); assay: SPR 37C; C = 10<KD<=100 nM
[3] = target: T1, Biotinylated human 4Ig B7-H3; assay: SPR 37C; A = KD<=1.0 nM
[4] = target: T1, Biotinylated human 4Ig B7-H3; assay: SPR 25C; A = KD<=1.0 nM
[5] = target: T1, Biotinylated human 4Ig B7-H3; assay: SPR 25C; D = 100<KD<=300 nM
[6] = target: T1, Biotinylated human 4Ig B7-H3; assay: SPR 37C; D = 100<KD<=300 nM
[7] = target: T1, Biotinylated human 4Ig B7-H3; assay: SPR 37C; C = 10<KD<=100 nM
2Ig B7-H3 [8] = target: T2, 2Ig B7-H3 (UniProt Q5ZPR3-2 29-245, limits assumed); assay: SPR, 25C
T2 construct: also called 2lg-B7-H3; B7-H3 isoform 2Ig
T2 sequence (looked up): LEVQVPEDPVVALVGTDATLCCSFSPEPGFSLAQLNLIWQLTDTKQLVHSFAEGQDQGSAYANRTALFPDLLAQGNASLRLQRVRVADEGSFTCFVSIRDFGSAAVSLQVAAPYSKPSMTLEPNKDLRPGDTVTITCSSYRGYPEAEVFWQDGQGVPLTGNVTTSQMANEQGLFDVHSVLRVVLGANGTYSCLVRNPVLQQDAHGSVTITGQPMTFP

[9] = target: T1, Biotinylated human 4Ig B7-H3; assay: SPR 25C; B = 1.0<KD<=10 nM
2Ig B7-H3 [10] = target: T2, 2Ig B7-H3; assay: SPR, 37C

Binder: Ac-[Nle]YCVGKYDVYCWF[aThr][dK](DOTA)-NH2 (disulfide 3-11) [Cpd 93]
KD [1]: 10 to 100 nM

B2: Cpd 1 (peptide)
peptide: Ac-MYCVGKYDVYCWF-NH2
modifications: disulfide 3-11
SMILES: CSCC[C@H](NC(C)=O)C(=O)N[C@@H](Cc1ccc(O)cc1)C(=O)N[C@H]1CSSC[C@@H](C(=O)N[C@@H](Cc2c[nH]c3ccccc23)C(=O)N[C@@H](Cc2ccccc2)C(N)=O)NC(=O)[C@H](Cc2ccc(O)cc2)NC(=O)[C@H](C(C)C)NC(=O)[C@H](CC(=O)O)NC(=O)[C@H](Cc2ccc(O)cc2)NC(=O)[C@H](CCCCN)NC(=O)CNC(=O)[C@H](C(C)C)NC1=O
KD [5]: 100 to 300 nM | KD [6]: 100 to 300 nM

Binder: Ac-[hLeu]YCIGK(DOTA)[4Pal]DVYC[Trp(5-F)]F[Pro(cis-4-F)]-NH2 (disulfide 3-11) [Cpd 268]
KD [9]: 1 to 10 nM | Kd (2Ig B7-H3 [10]): 7000 nM

Next, values leading:

KD [2]: 10 to 100 nM
Binder: Ac-[hLeu]YC[Tle]GK(DOTA)[Ala(4-THP)]DVYC[Trp(5-F)]F[Val(3-OH)]-OH (disulfide 3-11 (inferred)) [Cpd 322]

KD [3]: ≤ 1 nM | KD [4]: ≤ 1 nM
B1: Cpd 295 (peptide)
peptide: Ac-[hLeu]YCVGK[AEF](DOTA)DVYC[Trp(5-F)]FT-NH2
modifications: disulfide 3-11
SMILES: CC(=O)N[C@@H](CCC(C)C)C(=O)N[C@@H](Cc1ccc(O)cc1)C(=O)N[C@H]1CSSC[C@@H](C(=O)N[C@@H](Cc2c[nH]c3ccc(F)cc23)C(=O)N[C@@H](Cc2ccccc2)C(=O)N[C@H](C(N)=O)[C@@H](C)O)NC(=O)[C@H](Cc2ccc(O)cc2)NC(=O)[C@H](C(C)C)NC(=O)[C@H](CC(=O)O)NC(=O)[C@H](Cc2ccc(OCCNC(=O)CN3CCN(CC(=O)O)CCN(CC(=O)O)CCN(CC(=O)O)CC3)cc2)NC(=O)[C@H](CCCCN)NC(=O)CNC(=O)[C@H](C(C)C)NC1=O

KD [7]: 10 to 100 nM | KD [1]: 10 to 100 nM
Binder: Ac-[Nle]YCV[Sar]KYDVYCWF-NH2 (disulfide 3-11) [Cpd 26]

Kd (2Ig B7-H3 [8]): 860 nM
B3: Cpd 301 (peptide)
peptide: Ac-[hLeu]YCVG[Ala(piperidin-4-yl)][AEF](DOTA)DVYC[Trp(5-F)]FP-NH2
modifications: disulfide 3-11
SMILES: CC(=O)N[C@@H](CCC(C)C)C(=O)N[C@@H](Cc1ccc(O)cc1)C(=O)N[C@H]1CSSC[C@@H](C(=O)N[C@@H](Cc2c[nH]c3ccc(F)cc23)C(=O)N[C@@H](Cc2ccccc2)C(=O)N2CCC[C@H]2C(N)=O)NC(=O)[C@H](Cc2ccc(O)cc2)NC(=O)[C@H](C(C)C)NC(=O)[C@H](CC(=O)O)NC(=O)[C@H](Cc2ccc(OCCNC(=O)CN3CCN(CC(=O)O)CCN(CC(=O)O)CCN(CC(=O)O)CC3)cc2)NC(=O)[C@H](CC2CCNCC2)NC(=O)CNC(=O)[C@H](C(C)C)NC1=O
